Assay results as given in IntAct's records for PubMed 23622242.

B1: Double-stranded RNA-specific adenosine deaminase (Homo sapiens), P55265-1 (parent)
chain: MNPRQGYSLSGYYTHPFQGYEHRQLRYQQPGPGSSPSSFLLKQIEFLKGQLPEAPVIGKQTPSLPPSLPGLRPRFPVLLASSTRGRQVDIRGVPRGVHLRSQGLQRGFQHPSPRGRSLPQRGVDCLSSHFQELSIYQDQEQRILKFLEELGEGKATTAHDLSGKLGTPKKEINRVLYSLAKKGKLQKEAGTPPLWKIAVSTQAWNQHSGVVRPDGHSQGAPNSDPSLEPEDRNSTSVSEDLLEPFIAVSAQAWNQHSGVVRPDSHSQGSPNSDPGLEPEDSNSTSALEDPLEFLDMAEIKEKICDYLFNVSDSSALNLAKNIGLTKARDINAVLIDMERQGDVYRQGTTPPIWHLTDKKRERMQIKRNTNSVPETAPAAIPETKRNAEFLTCNIPTSNASNNMVTTEKVENGQEPVIKLENRQEARPEPARLKPPVHYNGPSKAGYVDFENGQWATDDIPDDLNSIRAAPGEFRAIMEMPSFYSHGLPRCSPYKKLTECQLKNPISGLLEYAQFASQTCEFNMIEQSGPPHEPRFKFQVVINGREFPPAEAGSKKVAKQDAAMKAMTILLEEAKAKDSGKSEESSHYSTEKESEKTAESQTPTPSATSFFSGKSPVTTLLECMHKLGNSCEFRLLSKEGPAHEPKFQYCVAVGAQTFPSVSAPSKKVAKQMAAEEAMKALHGEATNSMASDNQPEGMISESLDNLESMMPNKVRKIGELVRYLNTNPVGGLLEYARSHGFAAEFKLVDQSGPPHEPKFVYQAKVGGRWFPAVCAHSKKQGKQEAADAALRVLIGENEKAERMGFTEVTPVTGASLRRTMLLLSRSPEAQPKTLPLTGSTFHDQIAMLSHRCFNTLTNSFQPSLLGRKILAAIIMKKDSEDMGVVVSLGTGNRCVKGDSLSLKGETVNDCHAEIISRRGFIRFLYSELMKYNSQTAKDSIFEPAKGGEKLQIKKTVSFHLYISTAPCGDGALFDKSCSDRAMESTESRHYPVFENPKQGKLRTKVENGEGTIPVESSDIVPTWDGIRLGERLRTMSCSDKILRWNVLGLQGALLTHFLQPIYLKSVTLGYLFSQGHLTRAICCRVTRDGSAFEDGLRHPFIVNHPKVGRVSIYDSKRQSGKTKETSVNWCLADGYDLEILDGTRGTVDGPRNELSRVSKKNIFLLFKKLCSFRYRRDLLRLSYGEAKKAARDYETAKNYFKKGLKDMGYGNWISKPQEEKNFYLCPV
partner: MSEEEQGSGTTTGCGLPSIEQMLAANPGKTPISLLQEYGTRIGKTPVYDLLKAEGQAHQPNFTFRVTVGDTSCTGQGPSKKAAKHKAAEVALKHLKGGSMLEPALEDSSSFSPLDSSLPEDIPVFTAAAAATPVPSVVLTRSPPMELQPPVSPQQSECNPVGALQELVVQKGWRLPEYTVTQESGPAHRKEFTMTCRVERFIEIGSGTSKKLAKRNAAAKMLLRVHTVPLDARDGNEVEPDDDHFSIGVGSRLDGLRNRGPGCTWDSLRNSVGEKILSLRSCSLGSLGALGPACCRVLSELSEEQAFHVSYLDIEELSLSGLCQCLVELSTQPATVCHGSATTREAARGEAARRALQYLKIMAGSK

Variants of: B1
Conditions: with trbp2_human TARBP2, Q15633

effect of a mutation on the interaction | Variant
disrupting interaction strength | K554E;K555A;K558A;K665E;K666A;K669A;K777E;K778A;K781A
